# Experimental data from the supplement of paper PMC10126150.
# ± gives the standard deviation of the averaged measurements.
# Test system: ATP
# Test: switch fluorescence ratio, 500 uM ATP over buffer (Cy3 cluster intensity, sum of 5 cycles each) (fold (ratio)); higher = stronger signal-on switching upon ATP binding; sequences stand for … in TCGTCGGCAGCGTCAGATGTGTATAAGAGACAGTTTTTTTTTTTTTTTTTTTTTTTTT…TC
# Conditions: aptamer strand: ATP DNA aptamer (quencher-CACCTGGGGGAGTATTGCGGAGGAAGG + anchor), 100 nM annealed; ATP concentration: 500 uM
# In short: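 For every switch-domain sequence, the fluorescence ratio is the mean of per-cluster values, each being summed target-cycle Cy3 intensity over summed buffer-cycle Cy3 intensity. Clusters outside 100-1000 RFU were excluded. On a modified Illumina MiSeq flow-cell, the Cy3-labelled switching-strand clusters were annealed to 100 nM quencher-labelled ATP aptamer, imaged in selection buffer and then after 15 min with 500 uM ATP at 22 °C. Five such cycles were run, with NaOH stripping and re-annealing between them.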
# 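Also: ATP exposure 15 min at 22 °C before imaging.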
row,Sequence,switch fluorescence ratio
1,AAGAATATGC,0.978 ± 0.027
2,AAGACAGCGA,1.41 ± 0.57
3,AAGACGCTAA,1.18 ± 0.026
4,AAGACGTAGG,1.06 ± 0.034
5,AAGACTAGTT,0.999 ± 0.03
6,AAGACTCGGT,0.9518 ± 0.0012
7,AAGAGAAAGT,0.998 ± 0.028
8,AAGAGATAGT,1 ± 0.0076
9,AAGAGATGTG,0.985 ± 0.024
10,AAGAGGAAAA,1 ± 0.024
11,AAGAGGAAGC,0.984 ± 0.049
12,AAGAGGCGGA,1 ± 0.026
13,AAGAGGGATG,0.988 ± 0.043
14,AAGAGGGCAG,0.992 ± 0.0081
15,AAGAGGGGCT,1.015 ± 0.0018
16,AAGAGGGGGC,0.986 ± 0.045
17,AAGAGGGGTT,1.03 ± 0.062
18,AAGAGGTCTC,0.9681 ± 0.0023
19,AAGAGGTGGG,0.99 ± 0.024
20,AAGAGTAAGC,0.963 ± 0.013
21,AAGAGTCGGG,0.972 ± 0.051
22,AAGATACAGA,1.07 ± 0.016
23,AAGATAGCGG,0.9978 ± 6.2e-05
24,AAGATCAATA,0.9967 ± 0.0044
25,AAGATCACGG,0.971 ± 0.057

row,Sequence,switch fluorescence ratio
1,AAGATCATCT,1.01 ± 0.023
2,AAGATCATTG,0.98 ± 0.041
3,AAGATCCTTT,0.986 ± 0.025
4,AAGATCTCTA,1.01 ± 0.015
5,AAGATCTGCC,1.04 ± 0.021
6,AAGATGAAT,0.975 ± 0.04
7,AAGATGATGT,0.986 ± 0.03
8,AAGATGCGTA,0.978 ± 0.016
9,AAGATGCTTG,0.998 ± 0.038
10,AAGATGGTAG,0.971 ± 0.038
11,AAGATTAGTG,0.9828 ± 0.0067
12,AAGATTGGGT,1 ± 0.049
13,AAGCAATTAT,1.53 ± 0.11
14,AAGCAGGGGC,1.14 ± 0.16
15,AAGCAGTACC,3.24 ± 0.72
16,AAGCATAGGG,1.02 ± 0.015
17,AAGCATAGTC,1.06 ± 0.036
18,AAGCATAGTT,0.993 ± 0.011
19,AAGCATGGGC,1.02 ± 0.029
20,AAGCCCAGGG,1.403 ± 0.0054
21,AAGCCGCTAG,1.11 ± 0.026
22,AAGCGACTCG,1.006 ± 0.0056
23,AAGCGAGGGC,1.06 ± 0.035
24,AAGCGCAGAC,2.32 ± 0.079
25,AAGCGCTGTG,1.03 ± 0.047

row,Sequence,switch fluorescence ratio
1,AAGCGGAAGG,1.05 ± 0.02
2,AAGCGGAGAT,1.02 ± 0.0065
3,AAGCGGGGGG,1.03 ± 0.015
4,AAGCGGGTGG,1.05 ± 0.028
5,AAGCGGTTG,1.005 ± 0.006
6,AAGCGTAAAA,0.979 ± 0.024
7,AAGCTAAATG,1.01 ± 0.05
8,AAGCTAGGGA,1.01 ± 0.05
9,AAGCTCCATT,0.967 ± 0.016
10,AAGCTCGTTG,1.01 ± 0.031
11,AAGCTGAAGT,1.03 ± 0.035
12,AAGCTGACAG,1.01 ± 0.013
13,AAGCTGTTAC,1.6 ± 0.081
14,AAGCTTACGG,1.06 ± 0.056
15,AAGCTTGCCT,0.9871 ± 0.0013
16,AAGCTTGGCT,0.965 ± 0.028
17,AAGGAAAACG,0.969 ± 0.021
18,AAGGAAGACA,0.995 ± 0.03
19,AAGGAAGCGT,0.9883 ± 0.0045
20,AAGGAAGGCC,1.0145 ± 0.00052
21,AAGGAAGTTT,1.06 ± 0.18
22,AAGGAATGGT,1.05 ± 0.041
23,AAGGAATTGG,0.992 ± 0.0042
24,AAGGACTGAA,0.9994 ± 0.0078
25,AAGGACTTGG,1.01 ± 0.014

row,Sequence,switch fluorescence ratio
1,AAGGAGCAGT,0.985 ± 0.13
2,AAGGAGGATT,1 ± 0.028
3,AAGGAGGCTT,1.05 ± 0.066
4,AAGGAGGGGC,1.06 ± 0.13
5,AAGGAGGGT,0.9965 ± 0.0096
6,AAGGAGGTCA,0.977 ± 0.021
7,AAGGATAAAC,1.01 ± 0.039
8,AAGGATATGG,1.02 ± 0.016
9,AAGGATGCGA,1.039 ± 0.0079
10,AAGGATGGCC,1.01 ± 0.021
11,AAGGATGTTG,0.9998 ± 0.0017
12,AAGGATTAAT,0.987 ± 0.016
13,AAGGATTAGC,1.04 ± 0.11
14,AAGGATTCGC,1 ± 0.072
15,AAGGATTTTG,0.994 ± 0.022
16,AAGGCAAATA,1.04 ± 0.037
17,AAGGCAAGAT,1.04 ± 0.064
18,AAGGCAAGGG,1.01 ± 0.028
19,AAGGCAAGTG,0.989 ± 0.054
20,AAGGCCTTCT,0.994 ± 0.011
21,AAGGCGGATA,0.96 ± 0.013
22,AAGGCGGGG,0.991 ± 0.011
23,AAGGCGTACT,1.03 ± 0.026
24,AAGGCTAAAA,1.016 ± 0.0059
25,AAGGCTAAGC,1.024 ± 0.0026
